{"source": "paper PMC6449940", "about": "“The Cdc42 effectors Gic1 and Gic2 regulate polarized post-Golgi secretion” (Cell & Bioscience, 2019)", "binders": {"B1": {"name": "GST-Sec3N (a.a.71–241) (domain or fragment, S. cerevisiae (budding yeast), UniProt P33332 71-241, looked up)", "chain": "SSQTSNFLAEQYERDRKAIINCCFSRPDHKTGEPPNNYITHVRIIEDSKFPSSRPPPDSKLENKKKRLLILSAKPNNAKLIQIHKARENSDGSFQIGRTWQLTELVRVEKDLEISEGFILTMSKKYYWETNSAKERTVFIKSLITLYIQTFEGHVPELVNWDLSLFYLDER", "notes": "Sec3, exocyst subunit, budding yeast, residues 71-241 (N-terminus, PH domain-like region); also called Amino-terminus of Sec3 (a.a.71–241); source: GST fusion protein, purified and conjugated to glutathione Sepharose"}}, "target": "T1, His6-Cdc42 (S. cerevisiae, UniProt P19073 1-191)", "T1 construct": "Cdc42, small GTPase, S. cerevisiae; also called Hisx6-Cdc42; Cdc42 wild type; source: bacteria, purified (Hisx6 fusion)", "T1 sequence (P19073 whole entry, the tested form may be a part)": "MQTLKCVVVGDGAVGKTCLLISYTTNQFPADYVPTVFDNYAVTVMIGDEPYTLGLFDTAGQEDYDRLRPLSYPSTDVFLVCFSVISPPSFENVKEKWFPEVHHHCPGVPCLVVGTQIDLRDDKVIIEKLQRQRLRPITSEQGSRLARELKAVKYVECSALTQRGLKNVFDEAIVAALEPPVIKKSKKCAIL", "test": "pull-down; GST-Sec3N (a.a.71–241) on glutathione Sepharose (20 μg), His6-Cdc42 or mutant (10 μg) in the presence of GTPγS; bound protein detected with anti-Hisx6 antibody", "conditions": "both partners purified", "data": [{"binder": "B1", "values": [{"measurement": "binding result", "result": "binds"}]}]}
